{"source": "IntAct's records for PubMed 27857056", "parents": {"B1": {"name": "UDP-glucuronosyltransferase 1A9 (Homo sapiens), O60656-1 (parent)", "chain": "MACTGWTSPLPLCVCLLLTCGFAEAGKLLVVPMDGSHWFTMRSVVEKLILRGHEVVVVMPEVSWQLGRSLNCTVKTYSTSYTLEDLDREFKAFAHAQWKAQVRSIYSLLMGSYNDIFDLFFSNCRSLFKDKKLVEYLKESSFDAVFLDPFDNCGLIVAKYFSLPSVVFARGILCHYLEEGAQCPAPLSYVPRILLGFSDAMTFKERVRNHIMHLEEHLLCHRFFKNALEIASEILQTPVTEYDLYSHTSIWLLRTDFVLDYPKPVMPNMIFIGGINCHQGKPLPMEFEAYINASGEHGIVVFSLGSMVSEIPEKKAMAIADALGKIPQTVLWRYTGTRPSNLANNTILVKWLPQNDLLGHPMTRAFITHAGSHGVYESICNGVPMVMMPLFGDQMDNAKRMETKGAGVTLNVLEMTSEDLENALKAVINDKSYKENIMRLSSLHKDRPVEPLDLAVFWVEFVMRHKGAPHLRPAAHDLTWYQYHSLDVIGFLLAVVLTVAFITFKCCAYGYRKCLGKKGRVKKAHKSKTH", "partner": "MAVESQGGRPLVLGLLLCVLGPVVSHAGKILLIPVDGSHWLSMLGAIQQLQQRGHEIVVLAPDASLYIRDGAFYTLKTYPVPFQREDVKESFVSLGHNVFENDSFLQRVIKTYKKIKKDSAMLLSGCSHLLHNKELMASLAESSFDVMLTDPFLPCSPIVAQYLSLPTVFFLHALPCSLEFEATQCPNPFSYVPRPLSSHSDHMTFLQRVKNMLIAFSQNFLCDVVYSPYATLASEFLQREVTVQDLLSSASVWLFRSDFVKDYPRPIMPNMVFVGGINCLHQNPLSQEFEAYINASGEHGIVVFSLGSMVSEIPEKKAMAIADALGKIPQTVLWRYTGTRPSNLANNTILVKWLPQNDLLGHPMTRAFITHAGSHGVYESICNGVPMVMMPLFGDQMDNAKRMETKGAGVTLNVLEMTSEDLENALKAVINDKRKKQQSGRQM"}, "B2": {"name": "UDP-glucuronosyltransferase 2B7 (Homo sapiens), P16662 (parent)", "chain": "MSVKWTSVILLIQLSFCFSSGNCGKVLVWAAEYSHWMNIKTILDELIQRGHEVTVLASSASILFDPNNSSALKIEIYPTSLTKTELENFIMQQIKRWSDLPKDTFWLYFSQVQEIMSIFGDITRKFCKDVVSNKKFMKKVQESRFDVIFADAIFPCSELLAELFNIPFVYSLSFSPGYTFEKHSGGFIFPPSYVPVVMSELTDQMTFMERVKNMIYVLYFDFWFEIFDMKKWDQFYSEVLGRPTTLSETMGKADVWLIRNSWNFQFPYPLLPNVDFVGGLHCKPAKPLPKEMEDFVQSSGENGVVVFSLGSMVSNMTEERANVIASALAQIPQKVLWRFDGNKPDTLGLNTRLYKWIPQNDLLGHPKTRAFITHGGANGIYEAIYHGIPMVGIPLFADQPDNIAHMKARGAAVRVDFNTMSSTDLLNALKRVINDPSYKENVMKLSRIQHDQPVKPLDRAVFWIEFVMRHKGAKHLRVAAHDLTWFQYHSLDVIGFLLVCVATVIFIVTKCCLFCFWKFARKAKKGKND", "partner": "B1 chain"}, "B3": {"name": "UDP-glucuronosyltransferase 1A9 (Homo sapiens), O60656-1 (parent)", "chain": "B1 chain", "partner": "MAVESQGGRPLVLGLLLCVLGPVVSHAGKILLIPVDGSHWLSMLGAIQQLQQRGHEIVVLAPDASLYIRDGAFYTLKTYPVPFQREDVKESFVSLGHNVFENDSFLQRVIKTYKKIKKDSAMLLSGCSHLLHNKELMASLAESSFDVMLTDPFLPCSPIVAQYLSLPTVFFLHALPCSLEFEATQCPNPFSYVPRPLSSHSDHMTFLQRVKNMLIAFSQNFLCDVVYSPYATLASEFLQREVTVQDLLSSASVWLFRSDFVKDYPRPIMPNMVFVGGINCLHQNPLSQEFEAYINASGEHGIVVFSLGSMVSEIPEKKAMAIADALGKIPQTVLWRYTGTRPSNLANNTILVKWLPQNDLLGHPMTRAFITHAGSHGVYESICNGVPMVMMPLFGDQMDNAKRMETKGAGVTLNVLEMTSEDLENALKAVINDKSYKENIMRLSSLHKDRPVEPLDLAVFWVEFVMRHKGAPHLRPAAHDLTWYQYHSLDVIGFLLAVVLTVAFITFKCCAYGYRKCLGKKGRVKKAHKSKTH"}}}
{"variants_of": "B1", "conditions": "with UGT1A1, P22309-2"}
{"variant": "MAYTGWTSPLPLCVCLLLTCGFAEAGKLLVVPMDGSHWFTMRSVVEKLILRGHEVVVVMPEVSWQLGRSLNCTVKTYSTSYTLEDLDREFKAFAHAQWKAQVRSIYSLLMGSYNDIFDLFFSNCRSLFKDKKLVEYLKESSFDAVFLDPFDNCGLIVAKYFSLPSVVFARGILCHYLEEGAQCPAPLSYVPRILLGFSDAMTFKERVRNHIMHLEEHLLCHRFFKNALEIASEILQTPVTEYDLYSHTSIWLLRTDFVLDYPKPVMPNMIFIGGINCHQGKPLPMEFEAYINASGEHGIVVFSLGSMVSEIPEKKAMAIADALGKIPQTVLWRYTGTRPSNLANNTILVKWLPQNDLLGHPMTRAFITHAGSHGVYESICNGVPMVMMPLFGDQMDNAKRMETKGAGVTLNVLEMTSEDLENALKAVINDKSYKENIMRLSSLHKDRPVEPLDLAVFWVEFVMRHKGAPHLRPAAHDLTWYQYHSLDVIGFLLAVVLTVAFITFKCCAYGYRKCLGKKGRVKKAHKSKTH", "note": "[C3Y]", "effect of a mutation on the interaction": "with no effect"}
{"variants_of": "B2", "conditions": "with UGT1A9, O60656-1"}
{"variant": "MSVKWTSVILLIQLSFCFSSGNCGKVLVWAAEYSHWMNIKTILDELIQRGHEVTVLASSASILFDPNNSSALKIEIYPTSLTKTELENFIMQQIKRWSDLPKDTFWLYFSQVQEIMSIFGDITRKFCKDVVSNKKFMKKVQESRFDVIFADAIFPCSELLAELFNIPFVYSLSFSPGYTFEKHSGGFIFPPSYVPVVMSELTDQMTFMERVKNMIYVLYFDFWFEIFDMKKWDQFYSEVLGRPTTLSETMGKADVWLIRNSWNFQFPYPLLPNVDFVGGLHCKPAKPLPKEMEDFVQSSGENGVVVFSLGSMVSNMTEERANVIASALAQIPQKVLWRFDGNKPDTLGLNTRLYKWIPQNDLLGHPKTRAFITHGGANGIYEAIYHGIPMVGIPLFANQPDNIAHMKARGAAVRVDFNTMSSTDLLNALKRVINDPSYKENVMKLSRIQHDQPVKPLDRAVFWIEFVMRHKGAKHLRVAAHDLTWFQYHSLDVIGFLLVCVATVIFIVTKCCLFCFWKFARKAKKGKND", "note": "[D398N]", "effect of a mutation on the interaction": "with no effect"}
{"variant": "MSVKWTSVILLIQLSFCFSSGNCGKVLVWAAEYSHWMNIKTILDELIQRGHEVTVLASSASILFDPNNSSSLKIEIYPTSLTKTELENFIMQQIKRWSDLPKDTFWLYFSQVQEIMSIFGDITRKFCKDVVSNKKFMKKVQESRFDVIFADAIFPCSELLAELFNIPFVYSLSFSPGYTFEKHSGGFIFPPSYVPVVMSELTDQMTFMERVKNMIYVLYFDFWFEIFDMKKWDQFYSEVLGRPTTLSETMGKADVWLIRNSWNFQFPYPLLPNVDFVGGLHCKPAKPLPKEMEDFVQSSGENGVVVFSLGSMVSNMTEERANVIASALAQIPQKVLWRFDGNKPDTLGLNTRLYKWIPQNDLLGHPKTRAFITHGGANGIYEAIYHGIPMVGIPLFADQPDNIAHMKARGAAVRVDFNTMSSTDLLNALKRVINDPSYKENVMKLSRIQHDQPVKPLDRAVFWIEFVMRHKGAKHLRVAAHDLTWFQYHSLDVIGFLLVCVATVIFIVTKCCLFCFWKFARKAKKGKND", "note": "[A71S]", "effect of a mutation on the interaction": "with no effect"}
{"variants_of": "B3", "conditions": "with UGT1A1, P22309-1"}
{"variant": "MACTGWTSPLPLCVCLLLTCGFAEAGKLLVVPMDGSHWFTMRSVVEKLILRGHEVVVVMPEVSWQLGRSLNCTVKTYSTSYTLEDLDREFKAFAHAQWKAQVRSIYSLLMGSYNDIFDLFFSNCRSLFKDKKLVEYLKESSFDAVFLDPFDNCGLIVAKYFSLPSVVFARGILCHYLEEGAQCPAPLSYVPRILLGFSDAMTFKERVRNHIMHLEEHLLCHRFFKNALEIASEILQTPVTEYDLYSHTSIWLLRTNFVLDYPKPVMPNMIFIGGINCHQGKPLPMEFEAYINASGEHGIVVFSLGSMVSEIPEKKAMAIADALGKIPQTVLWRYTGTRPSNLANNTILVKWLPQNDLLGHPMTRAFITHAGSHGVYESICNGVPMVMMPLFGDQMDNAKRMETKGAGVTLNVLEMTSEDLENALKAVINDKSYKENIMRLSSLHKDRPVEPLDLAVFWVEFVMRHKGAPHLRPAAHDLTWYQYHSLDVIGFLLAVVLTVAFITFKCCAYGYRKCLGKKGRVKKAHKSKTH", "note": "[D256N]", "effect of a mutation on the interaction": "with no effect"}
{"variant": "MAYTGWTSPLPLCVCLLLTCGFAEAGKLLVVPMDGSHWFTMRSVVEKLILRGHEVVVVMPEVSWQLGRSLNCTVKTYSTSYTLEDLDREFKAFAHAQWKAQVRSIYSLLMGSYNDIFDLFFSNCRSLFKDKKLVEYLKESSFDAVFLDPFDNCGLIVAKYFSLPSVVFARGILCHYLEEGAQCPAPLSYVPRILLGFSDAMTFKERVRNHIMHLEEHLLCHRFFKNALEIASEILQTPVTEYDLYSHTSIWLLRTDFVLDYPKPVMPNMIFIGGINCHQGKPLPMEFEAYINASGEHGIVVFSLGSMVSEIPEKKAMAIADALGKIPQTVLWRYTGTRPSNLANNTILVKWLPQNDLLGHPMTRAFITHAGSHGVYESICNGVPMVMMPLFGDQMDNAKRMETKGAGVTLNVLEMTSEDLENALKAVINDKSYKENIMRLSSLHKDRPVEPLDLAVFWVEFVMRHKGAPHLRPAAHDLTWYQYHSLDVIGFLLAVVLTVAFITFKCCAYGYRKCLGKKGRVKKAHKSKTH", "note": "[C3Y]", "effect of a mutation on the interaction": "with no effect"}
{"variant": "MACTGWTSPLPLCVCLLLTCGFAEAGKLLVVPTDGSHWFTMRSVVEKLILRGHEVVVVMPEVSWQLGRSLNCTVKTYSTSYTLEDLDREFKAFAHAQWKAQVRSIYSLLMGSYNDIFDLFFSNCRSLFKDKKLVEYLKESSFDAVFLDPFDNCGLIVAKYFSLPSVVFARGILCHYLEEGAQCPAPLSYVPRILLGFSDAMTFKERVRNHIMHLEEHLLCHRFFKNALEIASEILQTPVTEYDLYSHTSIWLLRTDFVLDYPKPVMPNMIFIGGINCHQGKPLPMEFEAYINASGEHGIVVFSLGSMVSEIPEKKAMAIADALGKIPQTVLWRYTGTRPSNLANNTILVKWLPQNDLLGHPMTRAFITHAGSHGVYESICNGVPMVMMPLFGDQMDNAKRMETKGAGVTLNVLEMTSEDLENALKAVINDKSYKENIMRLSSLHKDRPVEPLDLAVFWVEFVMRHKGAPHLRPAAHDLTWYQYHSLDVIGFLLAVVLTVAFITFKCCAYGYRKCLGKKGRVKKAHKSKTH", "note": "[M33T]", "effect of a mutation on the interaction": "with no effect"}
